We go through 83 variants from the RNAGym collection of RNA variant scans (doi:10.1073/pnas.2313332121).

First the molecules themselves.
B1: TPR t1 (parent)
chain: GACCAAUCUGCCCUCAGAGCUCGAGAACAUCUUCGGAUGCAGAGGAGGCAGGCUUCGGUGGCGCGAUAGCGCCAACGUCCUCAACCUCCAAUGCAUCCCACCACAUGAUGAUGCCUGAAGAGCCUUGGUUUUUUG

The data set covers variants of B1. Kind of data set: polymerase ribozyme fitness, log enrichment relative to wild type (log ratio); higher = more active; in vitro selection for triplet polymerase activity. Summed up: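 Mutant libraries of both subunits of a heterodimeric triplet polymerase ribozyme were PCR-built, transcribed, and selected once in triplicate, with frozen incubation at −7 °C and capture of gel-excised extended constructs on streptavidin beads before RT-PCR. Illumina sequencing of input and output libraries was filtered to genotypes with ≥10 input reads and ≥1 read per output. Fitness is the logarithm of genotype enrichment over wild-type enrichment, using inverse-variance-weighted replicate averages. The logarithm is base 2.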
As for C56G C86U, the “polymerase ribozyme fitness (log ratio)” value came out at 0.0765.
Consider C56U G110U, for which the “polymerase ribozyme fitness (log ratio)” value was -0.767.
Turning to C8A G57U A66G C76U A90U, the “polymerase ribozyme fitness (log ratio)” value is -4.82.
Take C76G: the “polymerase ribozyme fitness (log ratio)” value was -0.207.
As for C15U A27C C56G C73U C97U, the figure is -6.81; as for G57A A66C, -2.98.
On to A50U G57U G135A, for which the “polymerase ribozyme fitness (log ratio)” value is -2.6.
With C40U C62U A95G, the “polymerase ribozyme fitness (log ratio)” value is -0.773.
Regarding C72A A121C, the “polymerase ribozyme fitness (log ratio)” value was found to be 1.46.
Take C31U C72G: the “polymerase ribozyme fitness (log ratio)” value is -4.16.
With U54C C124U, the “polymerase ribozyme fitness (log ratio)” value came out at 1.81.
For the variant G58U C82U C94U C114A, the “polymerase ribozyme fitness (log ratio)” value was -2.23.
For the variant U7A C53U U59G G60U C72G, the “polymerase ribozyme fitness (log ratio)” value is -0.651.
With C8G A18U C73G U126G, the “polymerase ribozyme fitness (log ratio)” value is -5.64.
For G60C C85A, the “polymerase ribozyme fitness (log ratio)” value was -0.933.
On to C56G C115U G135C, for which the “polymerase ribozyme fitness (log ratio)” value is -1.67.
As for U9G C56U C62U C94U U96A, the figure is -1.52.
C28U C72U: the “polymerase ribozyme fitness (log ratio)” value is -2.26.
Regarding G35A C72G A105C U109G U116G A121G, the “polymerase ribozyme fitness (log ratio)” value is -6.34.
For A27U U54A, the “polymerase ribozyme fitness (log ratio)” value was -2.8.
As for C56G G61C, the figure is -5.99.
For the variant C11U U112A, the “polymerase ribozyme fitness (log ratio)” value worked out at 1.19.
As for G69A C82U G120A G122U, the figure is -2.26.
For the variant G45C C82U G93A C101U, the “polymerase ribozyme fitness (log ratio)” value is -1.84.
As for U38G C102U, the figure is -3.84; as for G17C C79U, -4.69; as for G61U G107A U112C G122A, -5.04.
Take A27C: the “polymerase ribozyme fitness (log ratio)” value is -2.85.
Regarding G36U A103U C114U, the “polymerase ribozyme fitness (log ratio)” value is -5.26.
For C11U U33A, the “polymerase ribozyme fitness (log ratio)” value is -4.31.
On to G71U C124G U126C, for which the “polymerase ribozyme fitness (log ratio)” value amounted to 2.04.
As for G10U C70A, the “polymerase ribozyme fitness (log ratio)” value is -1.66.
As to C12A G69A A100C A121C, the “polymerase ribozyme fitness (log ratio)” value is -3.75.
For the variant G61C C70U C114U G127U, the “polymerase ribozyme fitness (log ratio)” value was -4.4.
As for C123A U126A U130G U133G, the figure is 0.742; as for C12U G60U G69A C86U C101A U112C, -6.42.
Consider C15U C99U G120C G122U, for which the “polymerase ribozyme fitness (log ratio)” value is -3.71.
As for C99U C101A, the figure is -4.62; as for G17A G36U C56U, -4.9.
With C13U G71C, the “polymerase ribozyme fitness (log ratio)” value is -0.732.
For the variant G45A G60U C64U C94U A105U C124A G127A, the “polymerase ribozyme fitness (log ratio)” value was -5.55.
For the variant A37C C76G G117C A121C, the “polymerase ribozyme fitness (log ratio)” value is -5.98.
As to G61C C101A U112G, the “polymerase ribozyme fitness (log ratio)” value is -3.98.
G63U C104A: the “polymerase ribozyme fitness (log ratio)” value was -2.5.
As for G19C G45A G60A U106A, the “polymerase ribozyme fitness (log ratio)” value is -4.35.
In the case of U21G U38C, the “polymerase ribozyme fitness (log ratio)” value is -2.11.
Consider U59A C94A, for which the “polymerase ribozyme fitness (log ratio)” value was -0.84.
For C12G G48A G93A, the “polymerase ribozyme fitness (log ratio)” value was -1.44.
Turning to G51A G60U, the “polymerase ribozyme fitness (log ratio)” value is -1.77.
As for G45A G52C, the figure is -1.37; as for C20A A46C C62U C86U, -3.97; as for A29G C53A A91G C98A A111G, -7.
Take G19U U96A C114A: the “polymerase ribozyme fitness (log ratio)” value was determined as 0.905.
G42C C124G: the “polymerase ribozyme fitness (log ratio)” value was found to be 0.37.
For the variant G48A G52A, the “polymerase ribozyme fitness (log ratio)” value was -0.371.
In the case of C4U C72A A100U, the “polymerase ribozyme fitness (log ratio)” value is -1.48.
C49A C79U C114U G120U: the “polymerase ribozyme fitness (log ratio)” value is -4.69.
As for A6U A26U G36C G63C, the figure is -5.14; as for C11A C49U C73A C86U A95G U106G C123U, -0.375.
Consider A18G C49A C64U C79U G120C G128U, for which the “polymerase ribozyme fitness (log ratio)” value was -3.3.
As for C56U C73G G122A U130A, the figure is -2.91; as for C13U G52C C62U C94G A100U G113A, -3.
Take C22G G63A C114U: the “polymerase ribozyme fitness (log ratio)” value is -3.48.
For U30G A43U G45U G47A C49A C73A U106A A119G, the “polymerase ribozyme fitness (log ratio)” value is -3.78.
As for U106A U109A, the figure is -3.73; as for G47U C104A U133G, -4.19.
Take A50U G61C G113U: the “polymerase ribozyme fitness (log ratio)” value was -5.56.
Turning to G61C G65A, the “polymerase ribozyme fitness (log ratio)” value was -4.9.
Turning to C8G C70U C80A C94G, the “polymerase ribozyme fitness (log ratio)” value was -5.61.
Take C22G G77C C88G C123U: the “polymerase ribozyme fitness (log ratio)” value was -3.61.
For G17A G71A, the “polymerase ribozyme fitness (log ratio)” value was -4.07.
As for C8U A29C U55A C56G C88A U112A U130C, the figure is -3.36.
As to U7G A50G U54C G128U, the “polymerase ribozyme fitness (log ratio)” value was -1.5.
Consider G10U C11G, for which the “polymerase ribozyme fitness (log ratio)” value turned out to be 0.195.
In the case of C12G A41U G44C C64U C82G G113U, the “polymerase ribozyme fitness (log ratio)” value is -5.32.
As for A6G C85U G113A, the figure is -2.51.
With G51C G61U A74C C114A G117A, the “polymerase ribozyme fitness (log ratio)” value is -7.43.
As for G39A A84C U106A, the figure is -0.784.
Turning to C28G G57C G63C C73U A83C C123A, the “polymerase ribozyme fitness (log ratio)” value was -5.12.
As to C11U C86A C104U, the “polymerase ribozyme fitness (log ratio)” value is -1.37.
G17A C20G: the “polymerase ribozyme fitness (log ratio)” value is -4.82.
As to G23U G52A C53G C115U, the “polymerase ribozyme fitness (log ratio)” value was -7.2.
Consider C8G C49G C89G, for which the “polymerase ribozyme fitness (log ratio)” value was -1.42.
